Experimental data taken from paper PMC9663175, “Cryo-EM structures reveal the activation and substrate recognition mechanism of human enteropeptidase” (Nature Communications, 2022).

T1: hEP heavy chain (residues 182-784 of human enteropeptidase, after trypsin activation) (human, UniProt P98073 182-784, N-linked glycans)
T1 construct: human enteropeptidase heavy chain of the 182-1019 construct (LDLR, CUB, MAM, CUB2, LDLR2, SRCR domains); C-terminal limit 784 follows from Ile785 as the new N-terminus of the light chain; Stays linked to the light chain by the disulfide Cys772-Cys896; source: HEK293F, transfected, secreted, purified from supernatant (Ni-NTA) as the 182-1019 zymogen, then cleaved with trypsin
T1 sequence (looked up): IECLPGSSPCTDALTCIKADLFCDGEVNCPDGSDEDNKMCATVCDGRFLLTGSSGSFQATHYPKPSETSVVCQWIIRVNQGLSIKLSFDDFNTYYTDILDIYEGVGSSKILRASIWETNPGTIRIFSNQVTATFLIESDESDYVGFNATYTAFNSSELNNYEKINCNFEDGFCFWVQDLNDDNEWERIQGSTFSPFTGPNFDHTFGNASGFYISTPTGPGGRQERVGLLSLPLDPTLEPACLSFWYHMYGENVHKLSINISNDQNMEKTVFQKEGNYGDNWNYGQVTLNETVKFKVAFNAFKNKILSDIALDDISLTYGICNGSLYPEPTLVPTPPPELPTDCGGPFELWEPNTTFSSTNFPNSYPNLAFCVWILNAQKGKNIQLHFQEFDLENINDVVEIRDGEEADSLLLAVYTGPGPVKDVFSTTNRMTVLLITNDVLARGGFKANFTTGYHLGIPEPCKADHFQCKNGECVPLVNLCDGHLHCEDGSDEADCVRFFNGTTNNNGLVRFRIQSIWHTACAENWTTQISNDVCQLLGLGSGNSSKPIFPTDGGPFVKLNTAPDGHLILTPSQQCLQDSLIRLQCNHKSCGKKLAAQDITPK

B1: hEP light chain (peptidase domain, residues 785-1019), wild type (domain or fragment, human, UniProt P98073 785-1019, looked up)
chain: IVGGSNAKEGAWPWVVGLYYGGRLLCGASLVSSDWLVSAAHCVYGRNLEPSKWTAILGLHMKSNLTSPQTVPRLIDEIVINPHYNRRRKDNDIAMMHLEFKVNYTDYIQPICLPEENQVFPPGRNCSIAGWGTVVYQGTTANILQEADVPLLSNERCQQQMPEYNITENMICAGYEEGGIDSCQGDSGGPLMCQENNRWFLAGVTSFGYKCALPNRPGVYARVSRFTEWIQSFLH
modifications: N-linked glycans
notes: human enteropeptidase light chain, N-terminus Ile785 (IVGG) after trypsin cleavage; Stays linked to the heavy chain by the disulfide Cys772-Cys896; source: HEK293F, transfected, secreted, purified from supernatant (Ni-NTA) as the 182-1019 zymogen, then cleaved with trypsin
B2: hEP^mut light chain (peptidase domain, residues 785-1019, H825A, D876A, S971A) (domain or fragment, human, UniProt P98073 785-1019, looked up)
chain: IVGGSNAKEGAWPWVVGLYYGGRLLCGASLVSSDWLVSAAACVYGRNLEPSKWTAILGLHMKSNLTSPQTVPRLIDEIVINPHYNRRRKDNAIAMMHLEFKVNYTDYIQPICLPEENQVFPPGRNCSIAGWGTVVYQGTTANILQEADVPLLSNERCQQQMPEYNITENMICAGYEEGGIDSCQGDAGGPLMCQENNRWFLAGVTSFGYKCALPNRPGVYARVSRFTEWIQSFLH
modifications: N-linked glycans
notes: human enteropeptidase light chain, N-terminus Ile785 after trypsin cleavage, catalytic triad mutated to Ala; The light chain of m1; also called light chain of hEP^mut
B3: hEP light chain (residues 785-1019) inhibited by nafamostat (domain or fragment, human, UniProt P98073 785-1019, looked up)
chain: IVGGSNAKEGAWPWVVGLYYGGRLLCGASLVSSDWLVSAAHCVYGRNLEPSKWTAILGLHMKSNLTSPQTVPRLIDEIVINPHYNRRRKDNDIAMMHLEFKVNYTDYIQPICLPEENQVFPPGRNCSIAGWGTVVYQGTTANILQEADVPLLSNERCQQQMPEYNITENMICAGYEEGGIDSCQGDSGGPLMCQENNRWFLAGVTSFGYKCALPNRPGVYARVSRFTEWIQSFLH
modifications: Ser971 covalently bound to the reaction product of nafamostat; N-linked glycans
notes: human enteropeptidase light chain, N-terminus Ile785 after trypsin cleavage; Stays linked to the heavy chain by the disulfide Cys772-Cys896

Target: T1, hEP heavy chain (residues 182-784 of …)
Test: cryo-EM structure; trypsin-activated two-chain hEP (residues 182-1019), heavy and light chains linked by a disulfide; wild type, catalytic-triad mutant, or wild type incubated with nafamostat
Settings: both partners purified

Binding result, binds:
B1, B2, B3
